# Data as given in patent US20210145976A1 (ARO BIOTHERAPEUTICS, published 2021).
# Residue numbers refer to the chain shown, from its start.
# B1: SEQ ID NO 154 (designed binder)
# chain: MLPAPKNLVVSRVTEDSARLSWTAPDAAFDSFFIPYAEPRPDGEAIVLTVPGSERSYDLTGLKPGTEYSVLIHGVKGGLLSSPLSAIFTT
# notes: FN3 domain
# B2: SEQ ID NO 144 (designed binder)
# chain: B1 chain with F33I, P39V, L79K, S82L
# notes: FN3 domain
# B3: SEQ ID NO 158 (designed binder)
# chain: MLPAPKNLVVSRVTEDSARLSWTAPDAAFDSFIIDYLELDDYGEAIVLTVPGSERSYDLTGLKPGTEYPVYIYGVKGGLPSTPLSAIFTT
# notes: FN3 domain
# B4: SEQ ID NO 132 (designed binder)
# chain: B1 chain with F33T, P35V, P39V, R40T, P41Y, S69D, L71F, H73E, L79E, S82W
# notes: FN3 domain
# B5: SEQ ID NO 116 (designed binder)
# chain: B1 chain with F33S, P35A, A37S, P39V, P41Y, S69V, L71P, H73G, L79G, L80S
# notes: FN3 domain
# B6: SEQ ID NO 117 (designed binder)
# chain: MLPAPKNLVVSRVTEDSARLSWTAPDAAFDSFTIPYGEAFNPGEAIVLTVPGSERSYDLTGLKPGTEYDVFIEGVKGGTLSWPLSAIFTT
# notes: FN3 domain
# B7: SEQ ID NO 150 (designed binder)
# chain: B1 chain with F33P, P35A, R40S, D42T, L79H, S82D
# notes: FN3 domain
# B8: SEQ ID NO 159 (designed binder)
# chain: B1 chain with F33L, P39T, R40S, D42S, L79R, L80N, S82D
# notes: FN3 domain
# B9: SEQ ID NO 122 (designed binder)
# chain: MLPAPKNLVVSRVTEDSARLSWTAPDAAFDSFQIPYWEQSLGGEAIVLTVPGSERSYDLTGLKPGTEYEVWIEGVKGGDLSFPLSAISTT
# notes: FN3 domain
# B10: SEQ ID NO 166 (designed binder)
# chain: B6 chain with P35L, G37N, A39I, F40Q, P42V, F71W, T79E
# notes: FN3 domain
# B11: SEQ ID NO 88 (designed binder)
# chain: MLPAPKNLVVSRVTEDSARLSWTAPDAAFDSFWIEYFEWTVGGEAIVLTVPGSERSYDLTGLKPGTEYYVSIYGVKGGWLSPPLSAIFTT
# notes: FN3 domain
# B12: SEQ ID NO 135 (designed binder)
# chain: MLPAPKNLVVSRVTEDSARLSWTAPDAAFDSFPISYYEMSGLGEAIVLTVPGSERSYDLTGLKPGTEYMVYIFGVKGGLNSLPLSAIFTT
# notes: FN3 domain
# B13: SEQ ID NO 82 (designed binder)
# chain: MLPAPKNLVVSRVTEDSARLSWTAPDAAFDSFAIAYVEWWKLGEAIVLTVPGSERSYDLTGLKPGTEYVVPIPGVKGGGHSSPLSAIFTT
# notes: FN3 domain
# B14: SEQ ID NO 156 (designed binder)
# chain: B11 chain with W33A, W39N, T40L, V41G, G42I, Y69V, S71N, P82S
# notes: FN3 domain
# B15: SEQ ID NO 137 (designed binder)
# chain: MLPAPKNLVVSRVTEDSARLSWTAPDAAFDSFEIEYDEPSVAGEAIVLTVPGSERSYDLTGLKPGTEYRVFIWGVKGGNQSWPLSAIFTT
# notes: FN3 domain
# B16: SEQ ID NO 145 (designed binder)
# chain: B1 chain with R40S, D42T, S69D, L71W, H73E, L79T, S82W
# notes: FN3 domain
# B17: SEQ ID NO 118 (designed binder)
# chain: B6 chain with T33R, P35L, A39V, F40D, N41P, P42W, F71W, T79K
# notes: FN3 domain
# B18: SEQ ID NO 86 (designed binder)
# chain: MLPAPKNLVVSRVTEDSARLSWTAPDAAFDSFIIWYAEWVNDGEAIVLTVPGSERSYDLTGLKPGTEYRVEITGVKGGTWSRPLSAIFTT
# notes: FN3 domain
# B19: SEQ ID NO 114 (designed binder)
# chain: B12 chain with P33A, S35E, Y37W, M39A, S40V, L42S, M69H, F73Y, L79Y, N80L
# notes: FN3 domain
# B20: SEQ ID NO 90 (designed binder)
# chain: B6 chain with P35H, G37W, A39F, F40D, N41P, D69T, F71Y, T79W, L80W, W82K
# notes: FN3 domain
# B21: SEQ ID NO 98 (designed binder)
# chain: B6 chain with V13I, T33D, A39F, F40D, N41T, P42I, F71Y, T79H
# notes: FN3 domain
# B22: SEQ ID NO 138 (designed binder)
# chain: B18 chain with I33F, W35K, A37I, V40W, N41A, R69L, T73Y, T79R, W80Q, R82Y
# notes: FN3 domain
# B23: SEQ ID NO 160 (designed binder)
# chain: B6 chain with T33N, P35A, A39W, F40R, N41Q, P42H, E73D, T79N
# notes: FN3 domain
# B24: SEQ ID NO 169 (designed binder)
# chain: B1 chain with P35G, A37L, R40Q, D42P, S69N, L71T, H73Q, L79F, L80P, S82V
# notes: FN3 domain
# B25: SEQ ID NO 108 (designed binder)
# chain: B6 chain with P35I, A39V, F40N, N41P, P42Y, T79H
# notes: FN3 domain
# B26: SEQ ID NO 165 (designed binder)
# chain: B1 chain with P5R, R40S, D42T, L79H, S82D, F88S
# notes: FN3 domain
# B27: SEQ ID NO 167 (designed binder)
# chain: B1 chain with P35G, A37L, R40Q, D42P, S69N, L71T, H73Q, L79T, L80P, S82E
# notes: FN3 domain
# B28: SEQ ID NO 101 (designed binder)
# chain: MLPAPKNLVVSRVTEDSARLSWTAPDAAFDSFAIDYDEPINSGEAIVLTVPGSERSYDLTGPKPGTEYEVEIYGVKGGYLSRPLSAIFTT
# notes: FN3 domain
# B29: SEQ ID NO 133 (designed binder)
# chain: B6 chain with T33P, P35V, F40W, N41V, P42T, F71W, T79E
# notes: FN3 domain
# B30: SEQ ID NO 105 (designed binder)
# chain: B12 chain with P33G, S35A, M39R, L42A, F73N, L79F, N80V, L82S
# notes: FN3 domain
# B31: SEQ ID NO 123 (designed binder)
# chain: B6 chain with T33V, G37E, A39Y, F40L, N41Y, P42T, F71W, T79L, L80T
# notes: FN3 domain
# B32: SEQ ID NO 141 (designed binder)
# chain: B11 chain with W33V, W39Q, T40F, V41N, G42L, Y69L, S71G, P82H
# notes: FN3 domain
# B33: SEQ ID NO 151 (designed binder)
# chain: B1 chain with R40S, D42T, S69G, L71V, H73L, L79Y, L80G, S82D
# notes: FN3 domain
# B34: SEQ ID NO 93 (designed binder)
# chain: B3 chain with I33Y, D35G, L39P, D40G, Y42N, P69N, Y71S, Y73G, P80G, T82Y
# notes: FN3 domain
# B35: SEQ ID NO 147 (designed binder)
# chain: B1 chain with P35G, A37L, R40Q, D42P, L79R, L80N, S82D, F88S
# notes: FN3 domain
# B36: SEQ ID NO 110 (designed binder)
# chain: B13 chain with A33F, A35H, V37H, K41E, L42A, V69L, P71D, G79D, H80L, S82V
# notes: FN3 domain
# B37: SEQ ID NO 131 (designed binder)
# chain: B12 chain with P33S, S35D, M39G, S40K, L42Y, M69Q, Y71L, F73S, L79K, N80Y
# notes: FN3 domain
# B38: SEQ ID NO 125 (designed binder)
# chain: B11 chain with W33V, W39F, T40V, V41G, G42E, Y69D, S71G, W79S, P82S
# notes: FN3 domain
# Molecular target: T1, recombinant biotinylated CD71 extracellular domain (Sino Biologics) with an N-terminal 6His tag (human, UniProt P02786 89-760, biotinylated (sites not given))
# T1 construct: extracellular domain; also called hCD71; huCD71
# Test: screening ELISA, ratio
# T1 sequence (P02786 other isoform, or with tags, fused parts or gaps): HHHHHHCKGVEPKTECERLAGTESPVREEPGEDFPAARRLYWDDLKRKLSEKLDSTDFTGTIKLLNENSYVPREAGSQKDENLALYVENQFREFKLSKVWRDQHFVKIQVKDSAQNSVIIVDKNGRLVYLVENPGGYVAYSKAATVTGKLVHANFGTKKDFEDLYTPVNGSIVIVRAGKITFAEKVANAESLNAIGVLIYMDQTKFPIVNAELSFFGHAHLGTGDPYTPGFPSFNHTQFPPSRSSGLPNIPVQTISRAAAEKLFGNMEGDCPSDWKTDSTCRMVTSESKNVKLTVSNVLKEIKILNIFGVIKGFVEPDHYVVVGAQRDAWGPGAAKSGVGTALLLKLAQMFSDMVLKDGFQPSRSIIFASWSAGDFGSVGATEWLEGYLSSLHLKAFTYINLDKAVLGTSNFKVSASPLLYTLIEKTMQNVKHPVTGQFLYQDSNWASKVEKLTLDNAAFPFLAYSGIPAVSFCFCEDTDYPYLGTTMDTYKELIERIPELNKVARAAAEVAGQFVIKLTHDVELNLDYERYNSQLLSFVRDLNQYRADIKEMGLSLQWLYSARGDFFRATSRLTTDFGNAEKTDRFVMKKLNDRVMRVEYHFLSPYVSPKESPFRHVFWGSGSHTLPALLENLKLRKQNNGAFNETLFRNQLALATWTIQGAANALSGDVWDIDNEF
row,hCD71:HSA,Binder
1,670,B1
2,986,B2
3,1520,B3
4,1170,B4
5,358,B5
6,64,B6
7,748,B7
8,1320,B8
9,78,B9
10,480,B10
11,118,B11
12,1370,B12
13,187,B13
14,206,B14
15,236,B15
16,33,B16
17,119,B17
18,1510,B18
19,780,B19

row,hCD71:HSA,Binder
1,429,B20
2,75,B21
3,1190,B22
4,836,B23
5,1060,B24
6,2450,B25
7,41,B26
8,727,B27
9,216,B28
10,855,B29
11,1260,B30
12,228,B31
13,648,B32
14,32,B33
15,1310,B34
16,33,B35
17,89,B36
18,910,B37
19,2220,B38

# Molecular target: T1, recombinant biotinylated CD71 …
# Test: screening ELISA
row,hCD71,Binder
1,2.78e+06,B1
2,2.71e+06,B2
3,2.06e+06,B3
4,2.75e+06,B4
5,536000,B5
6,1.5e+06,B6
7,2.62e+06,B7
8,2.58e+06,B8
9,2.31e+06,B9
10,2.42e+06,B10
11,708000,B11
12,2.06e+06,B12
13,3.53e+06,B13
14,1.03e+06,B14
15,484000,B15
16,1.62e+06,B16
17,2.24e+06,B17
18,3.39e+06,B18
19,3.27e+06,B19

row,hCD71,Binder
1,1.09e+06,B20
2,1.16e+06,B21
3,4.18e+06,B22
4,2.76e+06,B23
5,2.85e+06,B24
6,3.19e+06,B25
7,2.64e+06,B26
8,2.62e+06,B27
9,1.97e+06,B28
10,4.28e+06,B29
11,1.76e+06,B30
12,707000,B31
13,2.04e+06,B32
14,1.77e+06,B33
15,2.16e+06,B34
16,2.36e+06,B35
17,1.68e+06,B36
18,2.18e+06,B37
19,2.33e+06,B38
